From the RNAGym collection of RNA variant scans (doi:10.1093/molbev/msab373)

B1: Azoarcus group I ribozyme (parent)
chain: GUGCCUUGCGCCGGGAAACCACGCAAGGGAUGGUGUCAAAUUCGGCGAAACCUAAGCGCCCGCCCGGGCGUAUGGCAACGCCGAGCCAAGCUUCGGCGCCUGCGCCGAUGAAGGUGUAGAGACUAGACGGCACCCACCUAAGGCAAACGCUAUGGUGAAGGCAUAGUCCAGGGAGUGGCGAAAGUCACACAAACCGG

Variants of: B1
Test: reverse-splicing fitness (ratio to wild type); higher = more active; in vitro selection; Mg2+ level not given
Method in brief: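 An in vitro group I ribozyme library with randomized positions was T7-transcribed and gel-purified. In triplicate, 10 pmol RNA in EPPS pH 7.5 was reacted with 50 pmoles of a 30-nt RNA substrate for 1 h at 37 °C across several added MgCl2 levels (1–48 mM), then stopped with EDTA. Products were reverse transcribed from a substrate-complementary primer, PCR-amplified and sequenced (HiSeq 4000). Fitness is a variant's read proportion after selection over that before, normalised to wild type.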

Row | Variant | reverse-splicing fitness
1 | C82G A120U C150G C169U U176A | 0.00369
2 | C82G A120U C150G C169U U176C | 0.00347
3 | C82G A120U C150G C169U U176G | 0.0022
4 | C82G A145G C150A C169G U176C | 0.0286
5 | C82G A145G C150A C169G U176G | 0.00515
6 | C82G A145G C150A C169G U176A | 0.017
7 | C82G A120U A145C U176C | 0.0798
8 | C82G A120U A145C U176A | 0.0712
9 | C82G A120U A145C U176G | 0.0211
10 | C82G A120U A145C C169G U176G | 0.00141
11 | C82G A120U A145C C169G U176A | 0.00239
12 | C82G A120U A145C C169G U176C | 0.00261
13 | C82G A145C C150U C169G | 0.00731
14 | C82G A145C C150U C169U | 0.00975
15 | C82G A145C C150U C169A | 0.00797
16 | C82G A120U A145U C150G U176A | 0.00715
17 | C82G A120U A145U C150G U176G | 0.00267
18 | C82G A120U A145U C150G U176C | 0.0112
19 | C82G A145G C150A C169A | 0.0117
20 | C82G A145G C150A C169G | 0.00861
21 | C82G A145G C150A C169U | 0.0106

Row | Variant | reverse-splicing fitness
22 | C82G A120U A145U C150G C169A | 0.00271
23 | C82G A120U A145U C150G C169U | 0.00283
24 | C82G A120U A145U C150G C169G | 0.00287
25 | C82G A145G C150G C169A U176G | 0.00858
26 | C82G A145G C150G C169A U176C | 0.0144
27 | C82G A145G C150G C169A U176A | 0.0146
28 | C82G A145G C150A C169A U176C | 0.0238
29 | C82G A145G C150A C169A U176G | 0.00731
30 | C82G A145G C150A C169A U176A | 0.0204
31 | C82G A120U C169A | 0.00257
32 | C82G A120U C169U | 0.00719
33 | C82G A120U C169G | 0.00666
34 | C82G A120U A145G C150A C169G U176G | 0.00199
35 | C82G A120U A145G C150A C169G U176A | 0.00555
36 | C82G A120U A145G C150A C169G U176C | 0.00422
37 | C82G A120U C150G U176G | 0.00297
38 | C82G A120U C150G U176C | 0.0103
39 | C82G A120U C150G U176A | 0.0062
40 | C82G A120U C150A | 0.0159
41 | C82G A120U C150G | 0.0146
42 | C82G A120U C150U | 0.1

Row | Variant | reverse-splicing fitness
43 | C82G A120U A145G C150U U176G | 0.0104
44 | C82G A120U A145G C150U U176A | 0.0528
45 | C82G A120U A145G C150U U176C | 0.0776
46 | C82G A120U C150A C169A U176A | 0.00432
47 | C82G A120U C150A C169A U176C | 0.0035
48 | C82G A120U C150A C169A U176G | 0.00205
49 | C82G A120U A145C C150U C169U U176A | 0.00246
50 | C82G A120U A145C C150U C169U U176G | 0.00165
51 | C82G A120U A145C C150U C169U U176C | 0.00227
52 | C82G A145C C150A U176C | 0.0216
53 | C82G A145C C150A U176A | 0.0237
54 | C82G A145C C150A U176G | 0.0117
55 | C82G A120U C150U C169G | 0.00527
56 | C82G A120U C150U C169A | 0.00461
57 | C82G A120U C150U C169U | 0.00575
58 | C82G A145G C150U C169A U176G | 0.00619
59 | C82G A145G C150U C169A U176A | 0.0169
60 | C82G A145G C150U C169A U176C | 0.0162
61 | C82G A145C C169G U176C | 0.011
62 | C82G A145C C169G U176A | 0.0202
63 | C82G A145C C169G U176G | 0.0041

Row | Variant | reverse-splicing fitness
64 | C82G A120U A145G C169U | 0.00713
65 | C82G A120U A145G C169G | 0.00688
66 | C82G A120U A145G C169A | 0.00321
67 | C82G A145C C169U | 0.016
68 | C82G A145C C169A | 0.00859
69 | C82G A145C C169G | 0.0115
70 | C82G A120U A145C C150U C169G | 0.003
71 | C82G A120U A145C C150U C169U | 0.00351
72 | C82G A120U A145C C150U C169A U176G | 0.00172
73 | C82G A120U A145G U176G | 0.0134
74 | C82G A120U A145G U176C | 0.11
75 | C82G A120U A145G U176A | 0.0724
76 | C82G A145C C169A U176C | 0.00541
77 | C82G A145C C169A U176A | 0.0121
78 | C82G A145C C169A U176G | 0.00481
79 | C82G A120U C150G C169G U176C | 0.00277
80 | C82G A120U C150G C169G U176G | 0.00218
81 | C82G A120U C150G C169G U176A | 0.00454
82 | C82G A120U A145U C150A C169U | 0.00221
83 | C82G A120U A145U C150A C169G | 0.00252
84 | C82G A120U A145U C150A C169A | 0.00187
